Reference: patent US20240101688A1 (MYTHIC THERAPEUTICS, published 2024)
Substitutions are numbered along the chain they refer to.

B1: MYT4942 (antibody, V domains shown)
VH: QVQLVQSGAEVKKPGASVKVSCKASGHIFTAYTMHWVRQAPGQGLEWMGWIKPNNGLANYAQKFQGRVTMTRDTSISTAYMELSRLRSDDTAVYYCARSEITHEFDHWGQGTLVTVSS
VL: DIVMTQSPDSLAVSLGERATINCKSSESVDSYANSHLHWYQQKPGQPPKLLIYRASTRESGVPDRFSGSGSGTDFTLTISSLQAEDVAVYYCQQSKEDPLTFGGGTKVEIKR
notes: Telisotuzumab variant
B2: MYT4888 (antibody, V domains shown)
VH: QVQLVQSGAEVKKPGASVKVSCKASGYTFTSYWMHWVKQAPGQGLDWIGYIKPSTDNTEYNQKFKDKATLTADKSTSTAYMELSSLRSEDTAVYYCARSYGNYPLHDYWGQGTTVTVSS
VL: QIVLTQSPAILSLSPGERATLSCSASSSVTSNYLYWYQQKPGSSPKLLIYSTSNLASGVPARFSGSGSGTSYTLTISSLEAEDAASYFCHQWSSYPPTFGSGTKLEIKR
notes: P3D12 variant; also called MYTH4888
B3: MYT5344 (antibody, V domains shown)
VH: B2 VH with P53H, H106M
VL: B2 VL with N32H
notes: P3D12 variant
B4: MYT5367 (antibody, V domains shown)
VH: B2 VH with Y50H, H106M
VL: B2 VL with S94H, P96H
notes: P3D12 variant
B5: MYT4826 (antibody, V domains shown)
VH: QVQLVQSGAEVKKPGASVKVSCKASGYTFTHYYMHWVRQAPGQGLEWMGRVNPNRRHTTYNQKFEGRVTMTTDTSTSTAYMELRSLRSDDTAVYYCARANWLDYWGQGTTVTVSS
VL: DIQMTQSPSSLSASVGDRVTITCSVSSSVSSIYLHWYQQKPGKAPKLLIYSTSNLASGVPSRFSGSGSGTDFTLTISSLQPEDFATYYCQVYSGYPLTFGGGTKVEIKR
notes: Emibetuzumab variant
B6: MYT4305 (P3D12) (antibody, V domains shown)
VH: B2 VH with H106M
VL: QIVLTQSPAILSLSPGERATLSCSASSSVTSNYLYWYQQKPGSSPKLLIYSTSNLASGVPARFSGSGSGTSYTLTISSLEAEDAASYFCHQWSSYPPTFGSGTKLEIK
notes: Human IgG1; also called P3D12 anti-cMET
B7: MYT5351 (antibody, V domains shown)
VH: B2 VH with Y50H, H106M
VL: B2 VL with T52H
notes: P3D12 variant
B8: MYT5309 (antibody, V domains shown)
VH: B5 VH with H57G
VL: B5 VL with V91H
notes: Emibetuzumab variant
B9: MYT4837 (antibody, V domains shown)
VH: B5 VH with N54H
VL: B5 VL
notes: Emibetuzumab variant

Key:
[1] = target: T1, MET (cMET, Sino Biological Cat. No. 10692-H08H) (UniProt P08581 25-932); assay: BLI: antibody captured on anti-human Fc biosensor, MET in solution; three runs: pH 7.4 throughout (black), pH 6.4 throughout (light grey), association at pH 7.4 then release at lower pH (dark grey; key on D00015: pH 5.4; legend paragraph 84: pH 6.4); association 0-120 s
T1 construct: Soluble analyte of the BLI assays

[2] = target: T1, MET (cMET, Sino Biological Cat. No. …); assay: as above; remark: listed apart in the source
[3] = target: T1, MET (cMET, Sino Biological Cat. No. …); assay: BLI: antibody captured on anti-human Fc biosensor, MET in solution; association at pH 7.4 (0-120 s), dissociation at pH 7.4 (black trace) or pH 5.4 (grey trace)
Experimental: After allowing for four days of protein expression, cell culture supernatants were collected, quantified by SDS-PAGE analysis, and the pH dependence of the variant was evaluated using biolayer interferometry (BLI) on an Octet RED 96e instrument. Briefly, cell culture supernatants were diluted based on qualitative expression level of the variant determined by visual examination of SDS-PAGE gels, 5 μL of cell culture supernatant was diluted into 195 μL of 1×PBST, pH 7.4 for high expressors, 25 μL of cell culture supernatant was diluted into 175 μL of 1×PBST, pH 7.4 for medium expressors and 100 μL of cell culture supernatant was diluted into 100 μL of 1×PBST, pH 7.4 for low expressors for loading onto the sensor tips. Diluted supernatants were then captured on an anti-human Fc sensor (Forte Bio). A baseline was established using 1×PBST (50 mM Potassium Phosphate Buffer+150 mM NaCl+0.05% Tween 20), pH 7.4, and the sensor was associated with 50 nM of MET (cMET, Sino Biological Cat. No. 10692-H08H) in 1×PBST, pH 7.4, for 120 sec to generate an association curve. In the dissociation phase, the antibody-antigen complex on the sensor was exposed to 1×PBST, pH 7.4 or pH 5.4, for 300-600 sec.

[4] = target: T2, MET Proto-Oncogene, Receptor Tyrosine Kinase (MET), on cells (human, UniProt P08581 25-1390); assay: flow cytometry titration on HUVEC cells (8k/cell), pH 7.4; printed as Affinity at pH 7.4
T2 construct: also called cMET; c-Met
Experimental: (§1) Measurement of the affinity of pH-engineered antibodies specific for MET was performed by FACS analysis on cell lines with ranges of cMET expression; Detroit-562 cells (ATCC; CCL-138), NCI-H1975 (ATCC CRL-5908) and HUVEC (C2519A, Lonza). Cell lines selected for this study were obtained from commercial sources and cultured using manufacturer recommended conditions. All cell lines were cultured upon receipt, expanded and cryopreserved at a similar passage number for use in the affinity experiments. Briefly, 1.0×10\hat{ }5 cells that express MET are plated per well in a 96-well plate in 100 μL media. The cells are washed two times with 200 μL of FACS buffer (1×PBS containing 3% Fetal Bovine Serum) at pH 7.4. The purified protein samples are diluted into FACS buffer at pH 7.4, for a titration from 100 nM to 1 pM, and added to the cells and allowed to bind for 2 hours on ice. After incubation with the primary antibodies, cells are washed twice as before, and then 100 μl of secondary goat anti-Human AF488 (IgG Cross-Adsorbed polyclonal secondary antibody), diluted 1:200, is added in FACS buffer pH 7.4, and incubated for 1 hour on ice. The plates are washed twice Binding is read on a flow cytometer (Accuri C6, BD Biosciences). Binding is observed as a shift in the FL1 signal (as a mean fluorescence intensity) versus secondary alone.

[5] = target: T2, MET Proto-Oncogene, Receptor Tyrosine …; assay: flow cytometry titration on Detroit-562 cells (125K/cell), pH 7.4; printed as Affinity at pH 7.4
Experimental: as §1

[6] = target: T2, MET Proto-Oncogene, Receptor Tyrosine …; assay: affinity on HUVEC against affinity on Detroit-562, flow cytometry, pH 7.4
Experimental: as §1

T1 sequence (P08581 25-932 limits assumed): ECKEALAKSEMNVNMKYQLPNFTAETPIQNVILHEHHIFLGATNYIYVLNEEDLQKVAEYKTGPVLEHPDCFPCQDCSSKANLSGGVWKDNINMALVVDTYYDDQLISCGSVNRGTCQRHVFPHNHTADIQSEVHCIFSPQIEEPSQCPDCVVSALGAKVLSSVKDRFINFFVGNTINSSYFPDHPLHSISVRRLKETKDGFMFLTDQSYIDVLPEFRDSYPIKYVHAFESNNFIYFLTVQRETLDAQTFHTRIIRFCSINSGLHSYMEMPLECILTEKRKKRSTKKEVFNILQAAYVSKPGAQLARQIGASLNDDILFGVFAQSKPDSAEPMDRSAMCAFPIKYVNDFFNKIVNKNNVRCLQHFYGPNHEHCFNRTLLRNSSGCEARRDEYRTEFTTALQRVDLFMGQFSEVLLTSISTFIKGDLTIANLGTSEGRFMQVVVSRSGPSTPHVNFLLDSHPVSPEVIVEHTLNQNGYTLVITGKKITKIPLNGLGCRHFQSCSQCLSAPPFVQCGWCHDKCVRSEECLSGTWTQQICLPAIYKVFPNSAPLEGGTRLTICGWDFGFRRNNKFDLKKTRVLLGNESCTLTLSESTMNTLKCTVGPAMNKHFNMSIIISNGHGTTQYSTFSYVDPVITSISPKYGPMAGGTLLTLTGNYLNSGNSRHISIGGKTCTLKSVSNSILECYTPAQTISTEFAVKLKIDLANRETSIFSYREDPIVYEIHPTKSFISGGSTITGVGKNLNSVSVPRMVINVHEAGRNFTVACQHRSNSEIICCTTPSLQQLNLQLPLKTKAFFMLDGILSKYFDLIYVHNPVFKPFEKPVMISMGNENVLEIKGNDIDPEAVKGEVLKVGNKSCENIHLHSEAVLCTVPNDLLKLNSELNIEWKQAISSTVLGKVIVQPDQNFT
T2 sequence (P08581 25-1390): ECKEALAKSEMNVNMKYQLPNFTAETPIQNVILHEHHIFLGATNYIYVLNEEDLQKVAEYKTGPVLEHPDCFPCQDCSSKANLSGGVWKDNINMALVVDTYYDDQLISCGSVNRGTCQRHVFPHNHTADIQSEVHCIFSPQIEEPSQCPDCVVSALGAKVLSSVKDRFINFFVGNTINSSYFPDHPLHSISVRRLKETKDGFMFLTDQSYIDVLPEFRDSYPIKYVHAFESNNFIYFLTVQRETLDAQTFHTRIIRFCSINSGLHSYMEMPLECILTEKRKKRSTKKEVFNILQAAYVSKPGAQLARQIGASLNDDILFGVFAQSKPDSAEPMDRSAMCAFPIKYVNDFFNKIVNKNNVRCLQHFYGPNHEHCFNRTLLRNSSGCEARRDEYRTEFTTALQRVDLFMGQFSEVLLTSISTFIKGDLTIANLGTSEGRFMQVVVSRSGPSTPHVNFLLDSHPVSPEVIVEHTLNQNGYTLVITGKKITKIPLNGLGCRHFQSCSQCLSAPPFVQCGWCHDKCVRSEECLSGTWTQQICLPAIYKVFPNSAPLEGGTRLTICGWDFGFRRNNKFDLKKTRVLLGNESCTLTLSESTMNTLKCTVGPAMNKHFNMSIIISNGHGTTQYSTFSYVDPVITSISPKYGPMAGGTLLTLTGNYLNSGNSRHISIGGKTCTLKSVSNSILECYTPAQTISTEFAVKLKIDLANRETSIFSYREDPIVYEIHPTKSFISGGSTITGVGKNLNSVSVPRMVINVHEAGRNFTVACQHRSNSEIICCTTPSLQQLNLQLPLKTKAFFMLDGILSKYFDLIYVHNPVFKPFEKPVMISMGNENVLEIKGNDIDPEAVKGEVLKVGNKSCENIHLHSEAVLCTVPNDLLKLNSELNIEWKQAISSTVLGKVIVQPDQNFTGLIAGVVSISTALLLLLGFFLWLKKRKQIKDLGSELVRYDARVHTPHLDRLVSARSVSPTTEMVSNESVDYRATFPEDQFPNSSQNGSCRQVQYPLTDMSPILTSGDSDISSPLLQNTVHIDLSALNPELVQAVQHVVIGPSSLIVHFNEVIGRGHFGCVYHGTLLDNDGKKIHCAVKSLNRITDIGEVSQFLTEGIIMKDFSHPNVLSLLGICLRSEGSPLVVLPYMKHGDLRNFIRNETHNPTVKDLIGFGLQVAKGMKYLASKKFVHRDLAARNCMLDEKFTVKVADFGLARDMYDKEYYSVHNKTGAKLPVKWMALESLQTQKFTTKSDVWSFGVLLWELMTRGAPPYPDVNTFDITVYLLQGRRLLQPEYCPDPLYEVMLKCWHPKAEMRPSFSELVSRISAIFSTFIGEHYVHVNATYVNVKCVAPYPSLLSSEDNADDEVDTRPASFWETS

Binder | binding result [3] | Kd [4] | Kd [5] | Fold Avidity [6] | further results
B1 | – | – | – | – | binding result [1]: binds
B2 | – | – | – | – | binding result [2]: binds
B3 | binds | – | – | – | –
B4 | binds | – | – | – | –
B5 | binds | – | – | – | –
B6 | – | 0.2 nM | 0.292 nM | 0.7 fold | –
B7 | – | > 100 nM | 0.486 nM | > 200 fold | –
B8 | – | > 200 nM | 1.34 nM | > 50 fold | –
B9 | – | > 100 nM | 1.02 nM | > 100 fold | –
